One assay relates to CD8+ T-cells. The experiment in a line: In vitro T-cell priming assay with aAPCs loaded with peptide/MHC and anti-CD28, pMHC multimer readout. Format: cell-based, human. As to conditions: for Wells positive [%]: HLA-A*02 restricted peptides, positive wells among evaluable; for donors (in vitro immunogenicity, positive donors) / wells (in vitro immunogenicity, positive wells): HLA class I peptides, healthy donor CD8+ T-cells, multimer staining. The text has this: In order to obtain information regarding the immunogenicity of the TUMAPs of the present invention, the inventors performed investigations using an in vitro T-cell priming assay based on repeated stimulations of CD8+ T-cells with artificial antigen presenting cells (aAPCs) loaded with peptide/MHC complexes and anti-CD28 antibody.
In order to perform in vitro stimulations by artificial antigen presenting cells loaded with peptide-MHC complex (pMHC) and anti-CD28 antibody, the inventors first isolated CD8+ T-cells from fresh HLA-A*02 leukapheresis products via positive selection using CD8 microbeads (Miltenyi Biotec, Bergisch-Gladbach, Germany) of healthy donors obtained from the University clinics Mannheim, Germany, after informed consent.
PBMCs and isolated CD8+ lymphocytes were incubated in T-cell medium (TCM) until use consisting of RPMI-Glutamax (Invitrogen, Karlsruhe, Germany) supplemented with 10% heat inactivated human AB serum (PAN-Biotech, Aidenbach, Germany), 100 U/ml Penicillin/100 μg/ml Streptomycin (Cambrex, Cologne, Germany), 1 mM sodium pyruvate (CC Pro, Oberdorla, Germany), 20 μg/ml Gentamycin (Cambrex). 2.5 ng/ml IL-7 (PromoCell, Heidelberg, Germany) and 10 U/ml IL-2 (Novartis Pharma, Nürnberg, Germany) were also added to the TCM at this step.
Generation of pMHC/anti-CD28 coated beads, T-cell stimulations and readout was performed in a highly defined in vitro system using four different pMHC molecules per stimulation condition and 8 different pMHC molecules per readout condition.
The purified co-stimulatory mouse IgG2a anti human CD28 Ab 9.3 (Jung et al., 1987) was chemically biotinylated using Sulfo-N-hydroxysuccinimidobiotin as recommended by the manufacturer (Perbio, Bonn, Germany). Beads used were 5.6 μm diameter streptavidin coated polystyrene particles (Bangs Laboratories, Illinois, USA).
800.000 beads/200 μl were coated in 96-well plates in the presence of 4×12.5 ng different biotin-pMHC, washed and 600 ng biotin anti-CD28 were added subsequently in a volume of 200 μl. Stimulations were initiated in 96-well plates by co-incubating 1×10^6 CD8+ T-cells with 2×10^5 washed coated beads in 200 μl TCM supplemented with 5 ng/ml IL-12 (PromoCell) for 3 days at 37° C. Half of the medium was then exchanged by fresh TCM supplemented with 80 U/ml IL-2 and incubating was continued for 4 days at 37° C. This stimulation cycle was performed for a total of three times. For the pMHC multimer readout using 8 different pMHC molecules per condition, a two-dimensional combinatorial coding approach was used as previously described (Andersen et al., 2012) with minor modifications encompassing coupling to 5 different fluorochromes. Finally, multimeric analyses were performed by staining the cells with Live/dead near IR dye (Invitrogen, Karlsruhe, Germany), CD8-FITC antibody clone SK1 (BD, Heidelberg, Germany) and fluorescent pMHC multimers. For analysis, a BD LSRII SORP cytometer equipped with appropriate lasers and filters was used. Peptide specific cells were calculated as percentage of total CD8+ cells. Evaluation of multimeric analysis was done using the FlowJo software (Tree Star, Oreg., USA). In vitro priming of specific multimer+ CD8+ lymphocytes was detected by comparing to negative control stimulations.

The next assay deals with HLA-A*02:01 (Homo sapiens, UniProt P04439, D140Y/D185E/D98H/E176V/E277Q/G131W/G231S/I119V/I121R/I166T/I218V/L300P/L318F/N151K/N90K/P208A/P217A/Q86G/Q94H/R138H/R169H/T345S). The assay can be described thus: MHC binding assay (UV-ligand exchange, beta2m ELISA, peptide exchange yield). As to conditions: binding to HLA-A*02:01. The essentials:
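Peptide–HLA-A*02:01 complexes formed by UV-ligand exchange, in which a UV-cleavable peptide is replaced by the test peptide. Exchange products, diluted 100-fold, were captured on streptavidin plates and detected with HRP anti-β2m ELISA at 450 nm. Yield was quantified against refolded monomer standards at 15-500 ng/ml.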
Background: In an ELISA, binding on a coated surface is turned into a signal by an enzyme label.

For the substance “1 (ALIKQLFEA; listed as Homo sapiens) [compound 1]”, in the assay on CD8+ T-cells, the “Wells positive [%]” value was “″+” (<20% = +)”. Also, in the assay with HLA-A*02:01, the “Peptide exchange (MHC class I binding score, peptide exchange yield)” value (“Peptide exchange” below) is reported as “″+++” (≥50 = +++)”.

For the substance “2 (ALLPRYFFL; listed as Homo sapiens) [compound 2]”, in the assay with CD8+ T-cells, the “Wells positive [%]” value is reported as ““++++” (> = 70% = ++++)”. Also, the “Peptide exchange” value with HLA-A*02:01 is ““++” (≥20% = ++)”.

For the substance “3 (RLIPDTLYSV; listed as Homo sapiens) [compound 3]”, the “Wells positive [%]” value in the assay with CD8+ T-cells was ““+++” (50%-69% = +++)”.

Regarding “5 (WLFDDGGLTL; listed as Homo sapiens) [compound 5]”, the “Wells positive [%]” value with CD8+ T-cells is on record as ““++” (20%-49% = ++)”. Further, in the assay with HLA-A*02:01, the “Peptide exchange” value is reported as ““++++” (≥75% = ++++)”.

Consider “7 (YLTRHLAVL; listed as Homo sapiens) [compound 7]”, for which the “Wells positive [%]” value in the assay on CD8+ T-cells is reported as ““+” (<20% = +)”. For the same substance, in the assay with HLA-A*02:01, the “Peptide exchange” value is recorded as ““++” (≥20% = ++)”.

In the case of “9 (ILDDHLSRV; listed as Homo sapiens) [compound 9]”, the “Wells positive [%]” value in the assay on CD8+ T-cells is recorded as ““+” (<20% = +)”. Further, in the assay with HLA-A*02:01, the “Peptide exchange” value is on record as ““++” (≥20% = ++)”.

In the case of “10 (RMYNKIFAI; listed as Homo sapiens) [compound 10]”, in the assay with CD8+ T-cells, the “Wells positive [%]” value is ““++++” (> = 70% = ++++)”. Also, the “Peptide exchange” value in the assay with HLA-A*02:01 is ““+++” (≥50 = +++)”.

As for “11 (YLFEKTFNM; listed as Homo sapiens) [compound 11]”, the “Wells positive [%]” value in the assay with CD8+ T-cells is ““+” (<20% = +)”. Further, in the assay with HLA-A*02:01, the “Peptide exchange” value was ““+++” (≥50 = +++)”.

In the case of “12 (ALVQGILERV; listed as Homo sapiens) [compound 12]”, the “Wells positive [%]” value with CD8+ T-cells was ““++++” (> = 70% = ++++)”. Moreover, the “Peptide exchange” value with HLA-A*02:01 was ““+++” (≥50 = +++)”.

Consider “13 (FLLAEDTKV; listed as Homo sapiens) [compound 13]”, for which, in the assay on CD8+ T-cells, the “Wells positive [%]” value is reported as ““++” (20%-49% = ++)”. The “Peptide exchange” value with HLA-A*02:01 is listed as ““+++” (≥50 = +++)”.

For the substance “17 (ALAAARVEL; listed as Homo sapiens) [compound 17]”, the “Wells positive [%]” value with CD8+ T-cells is recorded as ““++” (20%-49% = ++)”. The “Peptide exchange” value with HLA-A*02:01 is recorded as ““+++” (≥50 = +++)”.

Regarding “18 (FLSSLKGGLL; listed as Homo sapiens) [compound 18]”, the “Wells positive [%]” value in the assay on CD8+ T-cells is ““+” (<20% = +)”. Further, the “Peptide exchange” value in the assay with HLA-A*02:01 was ““+++” (≥50 = +++)”.

For “19 (RLYTKLLNEA; listed as Homo sapiens) [compound 19]”, the “Wells positive [%]” value in the assay on CD8+ T-cells is ““+++” (50%-69% = +++)”. In addition, the “Peptide exchange” value with HLA-A*02:01 was ““+++” (≥50 = +++)”.

For the substance “21 (VLIDHRWVL; listed as Homo sapiens) [compound 21]”, in the assay on CD8+ T-cells, the “Wells positive [%]” value is ““+” (<20% = +)”. For the same substance, the “Peptide exchange” value with HLA-A*02:01 is listed as ““+++” (≥50 = +++)”.

For the substance “166 (GLLEARGILGL; listed as Homo sapiens) [compound 166]”, in the assay with HLA-A*02:01, the “Peptide exchange” value is reported as ““+++” (≥50 = +++)”.

On to “167 (SVIDHIHLISV; listed as Homo sapiens) [compound 167]”, for which the “Peptide exchange” value with HLA-A*02:01 is listed as ““+++” (≥50 = +++)”.

For the substance “168 (GLIRFPLMTI; listed as Homo sapiens) [compound 168]”, the “Peptide exchange” value with HLA-A*02:01 was ““+++” (≥50 = +++)”.

“169 (YLAHFIEGL; listed as Homo sapiens) [compound 169]”: the “Peptide exchange” value with HLA-A*02:01 is recorded as ““+++” (≥50 = +++)”.

In the case of “170 (ALAGGITMV; listed as Homo sapiens) [compound 170]”, in the assay with HLA-A*02:01, the “Peptide exchange” value is reported as ““+++” (≥50 = +++)”.

Consider “171 (RLQETEGMVAV; listed as Homo sapiens) [compound 171]”, for which the “Peptide exchange” value in the assay with HLA-A*02:01 was ““++” (≥20% = ++)”.

“172 (LLLDTVTMQV; listed as Homo sapiens) [compound 172]”: the “Peptide exchange” value with HLA-A*02:01 is ““+++” (≥50 = +++)”.

As to “173 (KLGDLMVLL; listed as Homo sapiens) [compound 173]”, the “Peptide exchange” value in the assay with HLA-A*02:01 is given as ““+++” (≥50 = +++)”.

Regarding “174 (ILLDDNMQIRL; listed as Homo sapiens) [compound 174]”, the “Peptide exchange” value in the assay with HLA-A*02:01 is reported as ““++++” (≥75% = ++++)”.

“175 (TLLGGKEAQALGV; listed as Homo sapiens) [compound 175]”: in the assay with HLA-A*02:01, the “Peptide exchange” value was ““+++” (≥50 = +++)”.

With “176 (RTLDKVLEV; listed as Homo sapiens) [compound 176]”, the “Peptide exchange” value with HLA-A*02:01 was ““++” (≥20% = ++)”.

On to “177 (ALLQGAIESV; listed as Homo sapiens) [compound 177]”, for which, in the assay with HLA-A*02:01, the “Peptide exchange” value was ““+++” (≥50 = +++)”.

With “178 (YLFREPATI; listed as Homo sapiens) [compound 178]”, the “Peptide exchange” value with HLA-A*02:01 is recorded as ““++” (≥20% = ++)”.

Take “179 (RLLSPLSSA; listed as Homo sapiens) [compound 179]”: the “Peptide exchange” value with HLA-A*02:01 is on record as ““+++” (≥50 = +++)”.

For the substance “181 (NLFDLGGQYLRV; listed as Homo sapiens) [compound 181]”, in the assay with HLA-A*02:01, the “Peptide exchange” value is ““+++” (≥50 = +++)”.

Turning to “182 (SLNKWIFTV; listed as Homo sapiens) [compound 182]”, the “Peptide exchange” value in the assay with HLA-A*02:01 is given as ““++++” (≥75% = ++++)”.

Take “183 (TLQEVVTGV; listed as Homo sapiens) [compound 183]”: the “Peptide exchange” value with HLA-A*02:01 is ““+++” (≥50 = +++)”.

Turning to “184 (SLLDENNVSSYL; listed as Homo sapiens) [compound 184]”, in the assay with HLA-A*02:01, the “Peptide exchange” value is listed as ““+++” (≥50 = +++)”.

Regarding “185 (VLYTGVVRV; listed as Homo sapiens) [compound 185]”, in the assay with HLA-A*02:01, the “Peptide exchange” value is ““+++” (≥50 = +++)”.

Regarding “186 (KMSEKILLL; listed as Homo sapiens) [compound 186]”, the “Peptide exchange” value in the assay with HLA-A*02:01 was ““+++” (≥50 = +++)”.

As to “187 (GLHNVVYGI; listed as Homo sapiens) [compound 187]”, in the assay with HLA-A*02:01, the “Peptide exchange” value was ““+++” (≥50 = +++)”.

Regarding “188 (FLVDGPRVQL; listed as Homo sapiens) [compound 188]”, the “Peptide exchange” value in the assay with HLA-A*02:01 is ““+++” (≥50 = +++)”.

As to “189 (AISEVIGKITA; listed as Homo sapiens) [compound 189]”, the “Peptide exchange” value with HLA-A*02:01 was ““+++” (≥50 = +++)”.

Consider “190 (AMAEMVLQV; listed as Homo sapiens) [compound 190]”, for which the “Peptide exchange” value with HLA-A*02:01 was ““+++” (≥50 = +++)”.

In the case of “191 (QLFSEIHNL; listed as Homo sapiens) [compound 191]”, the “Peptide exchange” value with HLA-A*02:01 was ““++++″ (≥75% = ++++)”.

Regarding “219 (FLDEKGRCV; listed as Homo sapiens) [compound 219]”, in the assay with CD8+ T-cells, the “donors (in vitro immunogenicity, positive donors)” value was “+++ (50% − 69% = +++)” and the “wells (in vitro immunogenicity, positive wells)” value was “++ (20% − 49% = ++)”.

For “220 (KMDPVAYRV; listed as Homo sapiens) [compound 220]”, in the assay on CD8+ T-cells, the “donors (in vitro immunogenicity, positive donors)” value is “++++ (>=70% = ++++)” and the “wells (in vitro immunogenicity, positive wells)” value is reported as “+++ (50% − 69% = +++)”.
